According to the RNAGym collection of RNA variant scans (doi:10.7554/elife.80360):

B1: CPEB3 Ribozyme (parent)
chain: GGGGGCCACAGCAGAAGCGUUCACGUCGCGGCCCCUGUCAGAUUCUGGUGAAUCUGCGAAUUCUGCUGU

Variants of: B1
Assay: self-cleavage, relative activity (ratio to wild type); higher = more cleavage; co-transcriptional

Variant | self-cleavage
C34U C57U | 0.385
C34U C57A | 0.315
C35G U44C | 0.357
C35G U44A | 0.346
U36A U69A | 0.377
U36A U69C | 0.558
C34U U36G | 0.256
C34U U36C | 0.922
C35U C57A | 0.323
C35U U38C | 0.876
C35U U38G | 0.184
C35U U38A | 0.901
C34U A59C | 0.661
C34U A59G | 0.899
C35G U53C | 0.342
C35G U53G | 0.214
C35U U46G | 0.967
C35U U46A | 0.907
C35U U46C | 0.976
C35A A51C | 0.255
C35A A51G | 0.234
C35U U55G | 0.653
C35U U55C | 0.699
C35A G56A | 0.218

Variant | self-cleavage
C35A G56U | 0.223
C35A G56C | 0.253
C35G A40G | 0.394
C35G A40C | 0.225
C35G A40U | 0.261
C34U U55A | 0.925
C34U U55G | 0.84
C35A U64C | 0.276
C35A U64A | 0.205
C35A U64G | 0.318
C35A C39G | 0.3
C35A C39U | 0.183
C34U U43G | 0.708
C34U C54G | 0.819
C34U C54U | 0.985
C34U C54A | 0.809
C34U C39U | 0.943
C34U C39G | 0.973
C34U C39A | 0.834
C35G A59U | 0.254
U36A A40C | 0.223
U36A A40G | 0.248
C35A G47U | 0.259
C35A G47A | 0.292

Variant | self-cleavage
C35A G47C | 0.189
U36A G48C | 0.291
U36A G48U | 0.311
U36A C66A | 0.294
U36A C66U | 0.187
C34U U44G | 0.859
C34U U44A | 0.963
C34U U44C | 0.938
U36A U49G | 0.225
U36A U49A | 0.263
C35U C63G | 0.588
C35U C63A | 0.77
C35U C63U | 0.954
C35A U55A | 0.244
C35A U55G | 0.196
C35A U55C | 0.357
C35U U61G | 0.854
C35U U61A | 0.596
C35A C57U | 0.191
C35G A60U | 0.217
C35G A60C | 0.348
C35G A60G | 0.239
U36A U61C | 0.171
C34U A52U | 0.975

Variant | self-cleavage
C35A G37A | 0.221
C35A G37C | 0.254
C35A G37U | 0.237
C35G U43C | 0.372
C35G U43A | 0.335
C35G U43G | 0.31
C34U U67G | 0.982
C34U C45G | 0.992
C34U C45U | 1.03
C34U U49A | 0.996
C34U U49C | 0.998
C34U U49G | 0.985
U36A A42U | 0.242
U36A A42C | 0.191
C35A U43A | 0.185
C35A U43C | 0.264
C35A U43G | 0.227
C34U G48U | 0.983
C35U A42C | 0.81
C35U A42U | 0.907
C35U A42G | 0.943
C35G C54G | 0.348
C35G G58C | 0.295
C35G G58U | 0.375

Variant | self-cleavage
C35A U61A | 0.231
C35A U61G | 0.288
C35A A42U | 0.19
C35A A42G | 0.281
C35A A42C | 0.229
U36A A60C | 0.19
U36A A60U | 0.242
U36A A60G | 0.269
C35A G50U | 0.287
C35A U46G | 0.356
C35A U46A | 0.268
C35G U38A | 0.417
C35G U38G | 0.178
C35U A59U | 0.564
C35U A59C | 0.41
C35U A59G | 0.999
C35A U53A | 0.266
C35A U53G | 0.24
C35A U53C | 0.225
C35A U38C | 0.256
C35A U38A | 0.279
C35U U64A | 0.83
C35U U64C | 0.836
C35G G41U | 0.341

Variant | self-cleavage
C35U C54A | 0.744
C35U G47C | 0.967
C35U G47U | 1.01
C35U G47A | 0.918
C35A U49C | 0.342
C35A U49A | 0.303
C35A U49G | 0.26
C35U G56A | 0.819
C35U G56U | 0.859
C35U G56C | 0.651
U36A C54U | 0.35
C35U G68C | 0.963
C35U G68U | 1.01
U36A A59G | 0.263
U36A A59C | 0.157
C35A U62A | 0.306
C35A U62G | 0.21
C35A U62C | 0.242
C35G C63A | 0.341
C34U G50A | 1.03
C34U G50C | 0.999
C35G U61A | 0.33
C35U C39A | 0.782
C35U C39G | 0.878

Variant | self-cleavage
U36A U67C | 0.215
U36A U67G | 0.181
U36A U67A | 0.246
U36A U64A | 0.232
U36A U64G | 0.202
C35U G58C | 0.878
C35U G58A | 0.878
C35U G58U | 0.984
C35G G47C | 0.634
C35G G47U | 0.553
C35G G65U | 0.223
C35U U36C | 0.941
C35U U36G | 0.237
C35U U36A | 0.212
C34U C35A | 0.194
C34U C35G | 0.313
C34U C35U | 0.736
U36A A51U | 0.306
U36A A51C | 0.242
C35U G41C | 0.632
C35U G41U | 0.745
C35U A52G | 0.974
C35U A52U | 0.973
C34U U61G | 0.711

Variant | self-cleavage
C34U U61A | 0.952
C35A U69C | 0.417
C35A U69A | 0.358
C34U U69G | 1.04
C34U U69C | 1.07
C34U U69A | 1.01
C34U U46C | 0.977
C34U U46G | 0.988
C34U U46A | 1
C35A G68U | 0.394
C35A G68C | 0.345
C35A U44C | 0.277
C34U U53C | 0.943
C34U U53G | 0.728
U36A G58U | 0.253
U36A G58C | 0.226
C35U G50A | 0.974
C35U G50C | 0.979
C35A G41A | 0.264
C35A G41U | 0.277
C35G G50U | 0.443
C35G G50A | 0.36
U36A G41C | 0.22
U36A G41U | 0.251

Variant | self-cleavage
U36A U53A | 0.282
U36A U53G | 0.286
U36A G65U | 0.203
U36A G65C | 0.31
C35U U49C | 0.956
C35U U49G | 0.909
C35U U53A | 0.833
C34U U62A | 0.921
C34U U62G | 0.892
U36A C45A | 0.158
U36A C45G | 0.282
C35U G37A | 0.253
C35A A60G | 0.24
C35A A60C | 0.193
C35G C45A | 0.475
C35G C45U | 0.483
C35G C45G | 0.452
C35G C39A | 0.362
C35U U62G | 0.804
C35U U62A | 0.813
C35A C54A | 0.315
C35A C54U | 0.252
C35G U46C | 0.378
C35U A51U | 0.904

Variant | self-cleavage
C35U A51G | 0.904
C35U A51C | 0.958
C34U G65A | 0.919
C34U G65C | 0.682
C35G U67A | 0.638
C35G U67G | 0.574
C35G A42U | 0.308
C35G A42G | 0.503
C35G A51U | 0.445
C35G A51C | 0.426
C35G A51G | 0.461
U36A G50A | 0.213
U36A G50C | 0.249
U36A G56C | 0.201
U36A G56U | 0.177
C35A A52G | 0.247
C35A A52C | 0.316
C35U U44A | 0.889
C35U U44C | 0.919
U36A G68A | 0.317
U36A G68C | 0.227
U36A A52U | 0.166
U36A A52G | 0.178
U36A G47A | 0.295

Variant | self-cleavage
U36A G47U | 0.321
U36A G47C | 0.269
U36A U43A | 0.249
U36A U43G | 0.214
C35A U36G | 0.232
C35A U36C | 0.245
C35A U67C | 0.324
U36A U55G | 0.289
U36A U55C | 0.181
U36A U55A | 0.209
C35U G65U | 0.632
C35U G65A | 0.847
C35U U69C | 1.08
C35U U69G | 1.01
C34U G37U | 0.247
C34U G37C | 0.226
C35A C66G | 0.294
C35A C66U | 0.259
C35A C66A | 0.22
C34U G41A | 0.828
C35G C57G | 0.212
C35G C57A | 0.243
C35G U62A | 0.313
C35G U62G | 0.308

Variant | self-cleavage
C35U G48C | 0.964
C35U G48U | 0.987
C35U G48A | 1.01
C35G U69G | 0.545
C35G U69A | 0.543
C35G U69C | 0.77
C35U A40G | 0.914
C35U C66A | 0.828
C35A A59C | 0.204
C35A A59U | 0.227
C35A A59G | 0.34
C35G G37U | 0.257
C35G G37A | 0.219
C35G G37C | 0.206
U36A U44C | 0.295
C35G G68A | 0.741
C35G G68C | 0.77
C35G U64C | 0.274
C35G U64G | 0.304
C35A G58U | 0.286
C35G U49C | 0.513
C35U U43C | 0.866
C35U U43A | 0.818
C35G C66U | 0.474

Variant | self-cleavage
C35G C66A | 0.308
C35G G48A | 0.452
C35G G48U | 0.491
C35A G65U | 0.184
C35A G65A | 0.299
C35A C63A | 0.276
C34U C66A | 0.973
C34U C66U | 0.977
U36C A40G | 0.858
U36C A40C | 0.506
C35U C45G | 0.956
C34U G47U | 0.995
C34U G47C | 0.968
C34U G47A | 0.958
C35U U67G | 1.03
C35U U67C | 0.979
C34U C63G | 0.78
C34U G56A | 0.955
C34U G56C | 0.792
C34U G56U | 0.975
U36A U38A | 0.25
U36A U38G | 0.185
U36A U38C | 0.216
C34U A60U | 0.452

Variant | self-cleavage
C34U A60C | 0.371
C34U A60G | 0.789
C35G A52C | 0.433
C35G A52U | 0.474
U36A U62A | 0.218
U36A U62G | 0.249
U36A C39A | 0.233
U36A C57U | 0.233
U36A C57A | 0.213
U36A C57G | 0.231
C34U G68C | 0.962
C34U G68A | 1.01
U36A C63U | 0.185
U36A C63G | 0.213
U36A U46G | 0.255
U36A U46A | 0.164
C35A G48U | 0.249
C35G G56C | 0.331
C35G G56U | 0.307
C35G G56A | 0.297
C34U U64C | 0.971
C34U U64G | 0.928
